Laboratory results reported in patent US7897364.

Legend:
agrin-C45 = biological target: T1, agrin-C45
T1 chain: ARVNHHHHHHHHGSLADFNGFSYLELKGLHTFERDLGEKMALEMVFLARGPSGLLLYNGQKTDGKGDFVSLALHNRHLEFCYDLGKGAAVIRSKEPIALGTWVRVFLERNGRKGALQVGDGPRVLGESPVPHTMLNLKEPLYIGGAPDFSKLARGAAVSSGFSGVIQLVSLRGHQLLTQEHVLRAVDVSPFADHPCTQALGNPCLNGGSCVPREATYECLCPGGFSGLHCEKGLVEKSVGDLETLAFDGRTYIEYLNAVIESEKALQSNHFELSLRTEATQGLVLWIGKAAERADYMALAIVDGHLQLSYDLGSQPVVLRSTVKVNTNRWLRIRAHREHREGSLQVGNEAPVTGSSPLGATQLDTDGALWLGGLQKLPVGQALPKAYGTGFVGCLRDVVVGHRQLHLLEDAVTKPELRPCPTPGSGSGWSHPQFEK

[1] = biological target: agrin (endogenous, in mouse spinal cord and brain), A2ASQ1
[2] = biological target: rat agrin, transmembrane isoform containing the splice variants Y4 and Z8, P25304
Chain of rat agrin, transmembrane isoform containing the splice variants Y4 and Z8, P25304 (P25304 whole entry, looked up, change not shown, canonical isoform): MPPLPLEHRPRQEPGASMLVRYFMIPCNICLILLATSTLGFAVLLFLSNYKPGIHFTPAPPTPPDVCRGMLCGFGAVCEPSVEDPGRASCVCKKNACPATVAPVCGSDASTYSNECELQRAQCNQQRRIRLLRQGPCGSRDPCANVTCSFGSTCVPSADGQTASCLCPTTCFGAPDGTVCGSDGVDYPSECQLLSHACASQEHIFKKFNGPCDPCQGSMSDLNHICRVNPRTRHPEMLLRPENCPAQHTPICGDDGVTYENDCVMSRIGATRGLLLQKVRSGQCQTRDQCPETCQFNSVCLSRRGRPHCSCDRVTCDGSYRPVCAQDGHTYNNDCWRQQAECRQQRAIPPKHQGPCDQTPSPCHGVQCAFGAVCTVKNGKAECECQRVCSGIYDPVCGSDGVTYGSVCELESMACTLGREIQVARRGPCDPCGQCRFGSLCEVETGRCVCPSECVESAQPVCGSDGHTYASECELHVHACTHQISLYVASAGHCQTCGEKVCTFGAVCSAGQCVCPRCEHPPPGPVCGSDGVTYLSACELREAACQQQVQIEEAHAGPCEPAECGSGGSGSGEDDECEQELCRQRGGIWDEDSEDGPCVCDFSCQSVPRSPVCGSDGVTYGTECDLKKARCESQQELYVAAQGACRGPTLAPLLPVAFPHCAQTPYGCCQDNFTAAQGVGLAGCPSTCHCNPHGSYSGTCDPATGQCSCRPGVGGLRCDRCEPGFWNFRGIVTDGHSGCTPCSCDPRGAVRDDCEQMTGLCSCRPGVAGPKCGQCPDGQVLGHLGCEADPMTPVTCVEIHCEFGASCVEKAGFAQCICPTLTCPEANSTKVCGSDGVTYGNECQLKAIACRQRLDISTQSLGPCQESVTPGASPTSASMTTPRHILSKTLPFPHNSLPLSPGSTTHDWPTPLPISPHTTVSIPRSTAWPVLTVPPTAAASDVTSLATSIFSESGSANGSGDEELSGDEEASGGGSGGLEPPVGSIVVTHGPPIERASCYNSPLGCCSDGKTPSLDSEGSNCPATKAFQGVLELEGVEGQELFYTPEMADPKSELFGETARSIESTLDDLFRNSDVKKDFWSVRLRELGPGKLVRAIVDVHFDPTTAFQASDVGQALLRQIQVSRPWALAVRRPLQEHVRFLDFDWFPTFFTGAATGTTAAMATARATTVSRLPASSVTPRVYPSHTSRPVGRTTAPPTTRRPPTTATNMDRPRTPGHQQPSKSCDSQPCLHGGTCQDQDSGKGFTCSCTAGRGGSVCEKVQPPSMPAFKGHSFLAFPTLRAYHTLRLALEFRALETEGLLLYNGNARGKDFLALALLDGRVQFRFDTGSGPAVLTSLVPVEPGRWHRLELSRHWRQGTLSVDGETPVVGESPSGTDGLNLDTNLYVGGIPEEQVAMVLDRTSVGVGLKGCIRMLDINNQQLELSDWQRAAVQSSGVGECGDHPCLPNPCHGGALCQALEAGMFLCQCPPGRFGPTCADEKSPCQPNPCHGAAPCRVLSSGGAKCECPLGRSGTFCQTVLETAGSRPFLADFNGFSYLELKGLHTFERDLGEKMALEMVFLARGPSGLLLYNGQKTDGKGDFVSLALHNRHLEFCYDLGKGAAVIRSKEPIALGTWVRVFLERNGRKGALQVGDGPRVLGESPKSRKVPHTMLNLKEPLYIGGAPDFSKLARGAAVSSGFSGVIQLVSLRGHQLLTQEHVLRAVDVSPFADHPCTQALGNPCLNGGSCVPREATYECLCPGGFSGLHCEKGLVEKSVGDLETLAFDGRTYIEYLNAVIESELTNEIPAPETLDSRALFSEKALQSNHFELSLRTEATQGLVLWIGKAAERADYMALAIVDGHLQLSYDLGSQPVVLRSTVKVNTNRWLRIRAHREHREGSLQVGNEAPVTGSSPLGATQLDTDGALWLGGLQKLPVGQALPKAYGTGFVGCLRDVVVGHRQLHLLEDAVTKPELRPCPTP

Chain of agrin (endogenous, in mouse spinal cord and brain), A2ASQ1 (A2ASQ1 whole entry, canonical isoform): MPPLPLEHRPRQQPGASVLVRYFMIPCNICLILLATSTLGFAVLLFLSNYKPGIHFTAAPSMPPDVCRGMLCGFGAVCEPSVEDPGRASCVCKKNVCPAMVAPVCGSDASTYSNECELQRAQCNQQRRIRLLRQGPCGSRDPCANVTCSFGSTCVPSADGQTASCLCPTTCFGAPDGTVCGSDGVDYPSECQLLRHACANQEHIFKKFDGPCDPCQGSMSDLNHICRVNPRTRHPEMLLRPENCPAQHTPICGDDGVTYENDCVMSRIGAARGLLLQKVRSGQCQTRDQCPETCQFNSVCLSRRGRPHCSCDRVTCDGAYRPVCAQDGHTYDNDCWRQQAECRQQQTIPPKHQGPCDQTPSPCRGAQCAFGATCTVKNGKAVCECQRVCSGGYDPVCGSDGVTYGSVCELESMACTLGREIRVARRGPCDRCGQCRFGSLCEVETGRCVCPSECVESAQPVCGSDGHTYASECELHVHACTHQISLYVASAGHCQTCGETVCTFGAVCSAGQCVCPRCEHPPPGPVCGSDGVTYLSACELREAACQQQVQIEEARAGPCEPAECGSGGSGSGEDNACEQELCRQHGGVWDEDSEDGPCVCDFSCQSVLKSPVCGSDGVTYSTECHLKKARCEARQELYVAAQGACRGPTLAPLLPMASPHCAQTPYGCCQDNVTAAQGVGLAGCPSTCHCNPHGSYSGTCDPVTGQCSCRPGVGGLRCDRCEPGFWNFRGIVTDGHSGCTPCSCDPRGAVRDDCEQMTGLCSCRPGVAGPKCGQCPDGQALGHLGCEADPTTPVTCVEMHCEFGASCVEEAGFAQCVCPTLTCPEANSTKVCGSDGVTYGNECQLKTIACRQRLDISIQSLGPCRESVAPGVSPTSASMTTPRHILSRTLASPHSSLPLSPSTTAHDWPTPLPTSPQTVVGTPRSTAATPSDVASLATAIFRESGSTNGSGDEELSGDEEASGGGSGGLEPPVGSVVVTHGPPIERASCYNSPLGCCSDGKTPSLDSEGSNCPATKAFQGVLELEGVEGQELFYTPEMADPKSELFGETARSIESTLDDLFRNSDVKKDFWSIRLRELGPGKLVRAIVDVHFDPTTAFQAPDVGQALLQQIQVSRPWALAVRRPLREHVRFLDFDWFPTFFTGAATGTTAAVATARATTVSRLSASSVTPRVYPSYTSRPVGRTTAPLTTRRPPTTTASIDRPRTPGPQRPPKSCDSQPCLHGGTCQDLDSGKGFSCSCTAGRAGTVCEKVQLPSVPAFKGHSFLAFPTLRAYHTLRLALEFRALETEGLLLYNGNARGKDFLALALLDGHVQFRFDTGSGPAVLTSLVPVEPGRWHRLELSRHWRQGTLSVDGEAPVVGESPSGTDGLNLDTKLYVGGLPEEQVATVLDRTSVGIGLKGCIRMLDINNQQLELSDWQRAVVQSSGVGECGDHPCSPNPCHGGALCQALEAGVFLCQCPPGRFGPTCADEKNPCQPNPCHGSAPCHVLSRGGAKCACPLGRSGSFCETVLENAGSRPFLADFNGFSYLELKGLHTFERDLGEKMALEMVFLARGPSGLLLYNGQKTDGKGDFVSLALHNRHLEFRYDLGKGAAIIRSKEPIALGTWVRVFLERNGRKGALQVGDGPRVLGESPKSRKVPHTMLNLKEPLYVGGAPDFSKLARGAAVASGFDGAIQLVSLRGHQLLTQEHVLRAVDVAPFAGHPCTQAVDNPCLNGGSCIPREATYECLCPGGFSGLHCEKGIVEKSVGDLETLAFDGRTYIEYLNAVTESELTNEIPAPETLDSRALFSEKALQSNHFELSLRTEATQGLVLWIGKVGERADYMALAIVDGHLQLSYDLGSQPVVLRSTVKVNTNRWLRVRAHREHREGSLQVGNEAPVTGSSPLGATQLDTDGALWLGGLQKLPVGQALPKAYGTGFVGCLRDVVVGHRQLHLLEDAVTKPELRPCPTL

B1: human neurotrypsin (protein)
chain: FDSVLNDSLHHSHRHSPPAGPHYPYYLPTQQRPPRTRPPPPLPRFPRPPRALPAQRPHALQAGHTPRPHPWGCPAGEPWVSVTDFGAPCLRWAEVPPFLERSPPASWAQLRGQRHNFCRSPDGAGRPWCFYGDARGKVDWGYCDCRHGSVRLRGGKNEFEGTVEVYASGVWGTVCSSHWDDSDASVICHQLQLGGKGIAKQTPFSGLGLIPIYWSNVRCRGDEENILLCEKDIWQGGVCPQKMAAAVTCSFSHGPTFPIIRLAGGSSVHEGRVELYHAGQWGTVCDDQWDDADAEVICRQLGLSGIAKAWHQAYFGEGSGPVMLDEVRCTGNELSIEQCPKSSWGEHNCGHKEDAGVSCTPLTDGVIRLAGGKGSHEGRLEVYYRGQWGTVCDDGWTELNTYVVCRQLGFKYGKQASANHFEESTGPIWLDDVSCSGKETRFLQCSRRQWGRHDCSHREDVSIACYPGGEGHRLSLGFPVRLMDGENKKEGRVEVFINGQWGTICDDGWTDKDAAVICRQLGYKGPARARTMAYFGEGKGPIHVDNVKCTGNERSLADCIKQDIGRHNCRHSEDAGVICDYFGKKASGNSNKESLSSVCGLRLLHRRQKRIIGGKNSLRGGWPWQVSLRLKSSHGDGRLLCGATLLSSCWVLTAAHCFKRYGNSTRSYAVRVGDYHTLVPEEFEEEIGVQQIVIHREYRPDRSDYDIALVRLQGPEEQCARFSSHVLPACLPLWRERPQKTASNCYITGWGDTGRAYSRTLQQAAIPLLPKRFCEERYKGRFTGRMLCAGNLHEHKRVDSCQGDSGGPLMCERPGESWVVYGVTSWGYGCGVKDSPGVYTKVSAFVPWIKSVTKL
- cleavage of purified agrin-C45 by purified neurotrypsin (silver stained SDS-PAGE) (agrin-C45): The cleavage products agrin-C45 are found between 20 and 25 kDa
- cleavage of purified agrin-EGFP by purified neurotrypsin (SDS-PAGE, Western blot) (agrin-EGFP): Lane 2 shows the agrin-EGFP (indicated by arrow marked Ag-EGPF) and the C-terminal fragment of approximately 150 kDa generated by neurotrypsin activity

B2: mouse neurotrypsin (protein)
chain: DPVSRSPLHRPHPSPPRSQHAHYLPSSRRPPRTPRFPLPLRIPAAQRPQVLSTGHTPPTIPRRCGAGESWGNATNLGVPCLHWDEVPPFLERSPPASWAELRGQPHNFCRSPDGSGRPWCFYRNAQGKVDWGYCDCGQGPALPVIRLVGGNSGHEGRVELYHAGQWGTICDDQWDNADADVICRQLGLSGIAKAWHQAHFGEGSGPILLDEVRCTGNELSIEQCPKSSWGEHNCGHKEDAGVSCVPLTDGVIRLAGGKSTHEGRLEVYYKGQWGTVCDDGWTEMNTYVACRLLGFKYGKQSSVNHFDGSNRPIWLDDVSCSGKEVSFIQCSRRQWGRHDCSHREDVGLTCYPDSDGHRLSPGFPIRLVDGENKKEGRVEVFVNGQWGTICDDGWTDKHAAVICRQLGYKGPARARTMAYFGEGKGPIHMDNVKCTGNEKALADCVKQDIGRHNCRHSEDAGVICDYLEKKASSSGNKEMLSSGCGLRLLHRRQKRIIGGNNSLRGAWPWQASLRLRSAHGDGRLLCGATLLSSCWVLTAAHCFKRYGNNSRSYAVRVGDYHTLVPEEFEQEIGVQQIVIHRNYRPDRSDYDIALVRLQGPGEQCARLSTHVLPACLPLWRERPQKTASNCHITGWGDTGRAYSRTLQQAAVPLLPKRFCKERYKGLFTGRMLCAGNLQEDNRVDSCQGDSGGPLMCEKPDESWVVYGVTSWGYGCGVKDTPGVYTRVPAFVPWIKSVTSL
- temporal pattern of the C-terminal 100-kDa agrin fragment and of neurotrypsin in mouse spinal cord (Western blot) [1]: Western blotting with antibodies versus the C-terminal moiety of agrin revealed a highly similar temporal pattern
- 150 kDa C-terminal fragment of agrin-EGFP (Western blot) (agrin-EGFP): Western blot detection of the 150 kDa C-terminal fragment of agrin (Ag-CF) generated by neurotrypsin-mediated cleavage of agrin-EGFP
- release of a 100-kDa agrin fragment into the culture medium (Western blot) [2]: In 200 µl culture medium of double transfected HEK293T cells a 100-kDa band was detected with the anti-agrin antibody

B3: catalytically inactive neurotrypsin (Neurotrypsin Ser711Ala) (protein)
chain: DPVSRSPLHRPHPSPPRSQHAHYLPSSRRPPRTPRFPLPLRIPAAQRPQVLSTGHTPPTIPRRCGAGESWGNATNLGVPCLHWDEVPPFLERSPPASWAELRGQPHNFCRSPDGSGRPWCFYRNAQGKVDWGYCDCGQGPALPVIRLVGGNSGHEGRVELYHAGQWGTICDDQWDNADADVICRQLGLSGIAKAWHQAHFGEGSGPILLDEVRCTGNELSIEQCPKSSWGEHNCGHKEDAGVSCVPLTDGVIRLAGGKSTHEGRLEVYYKGQWGTVCDDGWTEMNTYVACRLLGFKYGKQSSVNHFDGSNRPIWLDDVSCSGKEVSFIQCSRRQWGRHDCSHREDVGLTCYPDSDGHRLSPGFPIRLVDGENKKEGRVEVFVNGQWGTICDDGWTDKHAAVICRQLGYKGPARARTMAYFGEGKGPIHMDNVKCTGNEKALADCVKQDIGRHNCRHSEDAGVICDYLEKKASSSGNKEMLSSGCGLRLLHRRQKRIIGGNNSLRGAWPWQASLRLRSAHGDGRLLCGATLLSSCWVLTAAHCFKRYGNNSRSYAVRVGDYHTLVPEEFEQEIGVQQIVIHRNYRPDRSDYDIALVRLQGPGEQCARLSTHVLPACLPLWRERPQKTASNCHITGWGDTGRAYSRTLQQAAVPLLPKRFCKERYKGLFTGRMLCAGNLQEDNRVDSCQGDAGGPLMCEKPDESWVVYGVTSWGYGCGVKDTPGVYTRVPAFVPWIKSVTSL
- release of a 100-kDa agrin fragment into the culture medium (Western blot) [2]: no signal was detected in medium of HEK293T cells transfected with agrin and catalytically inactive neurotrypsin
